Test results from paper PMC3660329, “Molecular Identification of Carnosine N-Methyltransferase as Chicken Histamine N-Methyltransferase-Like Protein (HNMT-Like)” (PLoS ONE, 2013).

Assays:
Experiment in all cases: radiochemical methyl transfer from (3H)SAM, nonlinear regression
Type in all cases: biochemical, Gallus gallus
[1] = substrate: NCCC(=O)N[C@@H](Cc1cnc[nH]1)C(=O)O; conditions: non-saturating 1 µM SAM, 1 mM MgCl2, pH 7.5, 37 °C
Excerpt: (§1) radiochemical methyl transfer from (3H)SAM, nonlinear regression on chicken HNMT-like protein (recombinant carnosine N-methyltransferase)

[2] = substrate: C[S+](CC[C@H](N)C(=O)O)C[C@H]1O[C@@H](n2cnc3c(N)ncnc32)[C@H](O)[C@@H]1O; conditions: 20 mM carnosine, variable (1H+3H)SAM, 1 mM MgCl2, pH 7.5, 37 °C, labelled compound
Excerpt: as §1

[3] = substrate: NCCC(=O)N[C@@H](Cc1cnc[nH]1)C(=O)O; conditions: non-saturating 1 µM SAM, 1 mM MgCl2, pH 7.5, 37 °C; remark: listed apart in the source
Excerpt: (§2) radiochemical methyl transfer from (3H)SAM, nonlinear regression on carnosine N-methyltransferase (native, chicken pectoral muscle)

[4] = substrate: C[S+](CC[C@H](N)C(=O)O)C[C@H]1O[C@@H](n2cnc3c(N)ncnc32)[C@H](O)[C@@H]1O; conditions: 20 mM carnosine, variable (1H+3H)SAM, 1 mM MgCl2, pH 7.5, 37 °C, labelled compound; remark: listed apart in the source
Excerpt: as §2

B1: chicken HNMT-like protein (recombinant carnosine N-methyltransferase) (Gallus gallus) (protein)
chain: MEPTPEMKRNRLPSMNFEAEILADPHDNSELYVIPSMRSLTAEEYVEAFQSFLDHSTEHQCMDEFNKEVMPHIMAGLGNGKSTINILGVGSGTGEQDLKMIQILQAAHPGVLINNEIIEPNPQHVAAYKELVNRAPDLQGVSFTWHQLTSSEYEQQVKEKNTHKKFDFIHMIQMLYRVEDIPNTIKFFHSCLNHQGKLLIIILSDSSGWASLWKKYRHCLPSTDSGHYITSDSITAVLRKLGIKYHVYEFPSGWDITECFIEGDPAGGHMMDFLTGTKNFLGTAPAALRSRLQEALCQPECSSRKDGRVIFCNNLSMIVAES
notes: full-length ORF from pectoral muscle cDNA, C-terminal His6 tag (pEF6/Myc-His A), expressed in COS-7, HisTrap purified to homogeneity, monomer about 38 kDa (36 kDa without tag)
Km [1]: 1628 ± 71 µM
Vmax [1]: 0.0519 µmol/min/mg
kcat [1]: 0.034 ± 0.001 s⁻¹
Km [2]: 14 ± 1 µM
Vmax [2]: 0.786 µmol/min/mg
kcat [2]: 0.519 ± 0.013 s⁻¹

B2: carnosine N-methyltransferase (native, chicken pectoral muscle) (Gallus gallus) (protein)
chain: MEPTPEMKRNRLPSMNFEAEILADPHDNSELYVIPSMRSLTAEEYVEAFQSFLDHSTEHQCMDEFNKEVMPHIMAGLGNGKSTINILGVGSGTGEQDLKMIQILQAAHPGVLINNEIIEPNPQHVAAYKELVNRAPDLQGVSFTWHQLTSSEYEQQVKEKNTHKKFDFIHMIQMLYRVEDIPNTIKFFHSCLNHQGKLLIIILSDSSGWASLWKKYRHCLPSTDSGHYITSDSITAVLRKLGIKYHVYEFPSGWDITECFIEGDPAGGHMMDFLTGTKNFLGTAPAALRSRLQEALCQPECSSRKDGRVIFCNNLSMIVAES
notes: about 45 kDa by gel filtration
Km [3]: 1646 ± 157 µM
Vmax [3]: 0.0138 µmol/min/mg
kcat [3]: 0.008 s⁻¹
Km [4]: 11 ± 1 µM
Vmax [4]: 0.153 µmol/min/mg
kcat [4]: 0.093 ± 0.002 s⁻¹
